In the supplement of paper PMC10126150:
± gives the standard deviation of the averaged measurements.

system: ATP; assay: switch fluorescence ratio, 500 uM ATP over buffer (Cy3 cluster intensity, sum of 5 cycles each) (fold (ratio)); higher = stronger signal-on switching upon ATP binding; sequences stand for … in TCGTCGGCAGCGTCAGATGTGTATAAGAGACAGTTTTTTTTTTTTTTTTTTTTTTTTT…TC; conditions: aptamer strand: ATP DNA aptamer (quencher-CACCTGGGGGAGTATTGCGGAGGAAGG + anchor), 100 nM annealed; ATP concentration: 500 uM
Outline: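 Per cluster, summed Cy3 intensity from the target cycles was divided by that from the buffer cycles to give the fluorescence ratio, then averaged per switch-domain sequence. Clusters outside 100-1000 RFU were excluded. The Cy3-labelled switching-strand clusters, on a modified Illumina MiSeq flow-cell, were annealed to 100 nM quencher-labelled ATP aptamer and imaged in selection buffer, then after 15 min with 500 uM ATP at 22 °C, for five cycles with NaOH stripping and re-annealing between them.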
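Also: ATP exposure 15 min at 22 °C before imaging.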

Sequence | switch fluorescence ratio
TTTACCCCAA | 1.15 ± 0.095
TTTACCGAAT | 1.05 ± 0.017
TTTACCGGCG | 1.02 ± 0.051
TTTACCTGGG | 1.01 ± 0.032
TTTACGCGGG | 1.04 ± 0.075
TTTACGGCCC | 1.07 ± 0.12
TTTACGGGAA | 1.05 ± 0.007
TTTACGGGTC | 0.981 ± 0.026
TTTACGGGTT | 0.988 ± 0.021
TTTACGTGAC | 1.22 ± 0.16
TTTACGTTGC | 1.34 ± 0.47
TTTACGTTTG | 0.9919 ± 0.0017
TTTACTGGCA | 1.05 ± 0.076
TTTACTTGTA | 1.01 ± 0.023
TTTACTTTAT | 1.06 ± 0.044
TTTAGAAACT | 1.027 ± 0.0067
TTTAGAATAC | 1.51 ± 0.42
TTTAGAGCGT | 0.9933 ± 0.0013
TTTAGAGGCT | 1 ± 0.012
TTTAGAGTGT | 1.044 ± 0.0087
TTTAGATACG | 1.05 ± 0.014
TTTAGATGGG | 0.989 ± 0.029
TTTAGATTCT | 0.992 ± 0.032
TTTAGCAACA | 1.04 ± 0.047
TTTAGCGTGG | 1.05 ± 0.05
TTTAGCT | 1.08 ± 0.097

Sequence | switch fluorescence ratio
TTTAGCTGAA | 0.962 ± 0.024
TTTAGGAAAG | 1.05 ± 0.063
TTTAGGAAGG | 1.017 ± 0.01
TTTAGGACGT | 0.999 ± 0.059
TTTAGGAGTT | 0.996 ± 0.019
TTTAGGCTGC | 1.01 ± 0.021
TTTAGGGAGC | 1.04 ± 0.029
TTTAGGGTAA | 1 ± 0.03
TTTAGGGTCG | 1.007 ± 0.0016
TTTAGGTAAT | 1.016 ± 0.0074
TTTAGGTAT | 1 ± 0.023
TTTAGGTCTA | 0.978 ± 0.019
TTTAGGTTCA | 0.98 ± 0.041
TTTAGGTTCT | 1.01 ± 0.026
TTTAGGTTTG | 1 ± 0.066
TTTAGTAATA | 1.03 ± 0.021
TTTAGTACGC | 1.05 ± 0.0076
TTTAGTAGCT | 1 ± 0.032
TTTAGTAGGT | 1.03 ± 0.023
TTTAGTAGTT | 1.01 ± 0.017
TTTAGTCATG | 0.977 ± 0.035
TTTAGTCGCG | 0.967 ± 0.039
TTTAGTGGTT | 1.02 ± 0.044
TTTAGTGTAT | 0.991 ± 0.04
TTTAGTTCTG | 0.9788 ± 0.0094
TTTAGTTGTG | 0.967 ± 0.014

Sequence | switch fluorescence ratio
TTTATAAAGG | 1.01 ± 0.034
TTTATAATCA | 0.967 ± 0.011
TTTATACCAA | 1.038 ± 0.0089
TTTATACGGC | 1.03 ± 0.014
TTTATAGGGG | 1.08 ± 0.14
TTTATATTAG | 0.9889 ± 0.0075
TTTATCTAGG | 1.02 ± 0.017
TTTATGAATG | 0.9853 ± 0.0042
TTTATGACGT | 1 ± 0.023
TTTATGAGCC | 1.01 ± 0.062
TTTATGAGCG | 0.973 ± 0.028
TTTATGAGGG | 1.02 ± 0.047
TTTATGCCAT | 0.989 ± 0.012
TTTATGGATC | 1.01 ± 0.05
TTTATGGCCT | 1.02 ± 0.052
TTTATGGCTG | 0.987 ± 0.076
TTTATGGGG | 0.965 ± 0.08
TTTATGTAAA | 0.9849 ± 0.0081
TTTATGTCTC | 0.992 ± 0.029
TTTATGTTCG | 0.99 ± 0.02
TTTATGTTT | 0.984 ± 0.019
TTTATTATTT | 0.989 ± 0.024
TTTATTCCGG | 1 ± 0.01
TTTATTCTGT | 1 ± 0.022
TTTATTCTTA | 0.9807 ± 0.0081
TTTATTGCTA | 1.01 ± 0.034

Sequence | switch fluorescence ratio
TTTATTTGCC | 1.05 ± 0.042
TTTATTTGG | 1.09 ± 0.12
TTTATTTTTG | 0.992 ± 0.029
TTTCAAAAGT | 1.006 ± 0.006
TTTCAACATA | 0.9987 ± 0.0035
TTTCACAAGG | 0.9836 ± 0.0089
TTTCACCCCT | 1.09 ± 0.067
TTTCACGAAT | 0.993 ± 0.015
TTTCACGCGC | 1.03 ± 0.016
TTTCAGGATG | 0.963 ± 0.017
TTTCAGGGGA | 1.19 ± 0.32
TTTCAGGTTT | 0.983 ± 0.033
TTTCAGTCGG | 1.006 ± 0.0037
TTTCAGTGCA | 1.02 ± 0.029
TTTCATAAGT | 0.999 ± 0.025
TTTCATACTC | 1.29 ± 0.21
TTTCATTTTA | 0.9881 ± 0.0064
TTTCATTTTG | 1.03 ± 0.017
TTTCCCGACG | 1.12 ± 0.11
TTTCCCGGGC | 1.01 ± 0.056
TTTCCGAGGA | 1.03 ± 0.069
TTTCCGCAGG | 1.24 ± 0.17
TTTCCGCTTA | 3.67 ± 1.7
TTTCCGGCGT | 1.03 ± 0.023
TTTCCGGGAC | 1.41 ± 0.066
TTTCCTCAG | 1.3 ± 0.4

Sequence | switch fluorescence ratio
TTTCCTTGTG | 1.36 ± 0.53
TTTCCTTTTG | 1.01 ± 0.054
TTTCGACACG | 0.989 ± 0.018
TTTCGAGCTT | 1.01 ± 0.022
TTTCGAGTGC | 0.97892 ± 0.00082
TTTCGAGTTA | 1.03 ± 0.063
TTTCGAGTTG | 0.9809 ± 0.0029
TTTCGATGGG | 0.978 ± 0.015
TTTCGGAAAA | 1.24 ± 0.41
TTTCGGACCT | 1.3458 ± 0.00061
TTTCGGCACT | 1.01 ± 0.05
TTTCGGCCAA | 1.62 ± 0.76
TTTCGGCGGG | 1 ± 0.013
TTTCGGGAGC | 0.977 ± 0.049
TTTCGGGAGT | 0.976 ± 0.016
TTTCGGGCCA | 1.12 ± 0.039
TTTCGGGCTG | 0.984 ± 0.015
TTTCGGGGAC | 1.43 ± 0.62
TTTCGGGGCT | 1 ± 0.052
TTTCGGGGGC | 0.993 ± 0.028
TTTCGGTCAT | 1.02 ± 0.029
TTTCGGTTCC | 1.05 ± 0.051
TTTCGTAAAA | 1.002 ± 0.0057
TTTCGTATTC | 1 ± 0.015
TTTCGTCCAA | 1.04 ± 0.026
TTTCGTGGGT | 0.9863 ± 0.006

Sequence | switch fluorescence ratio
TTTCGTGGTT | 0.937 ± 0.021
TTTCGTTTGC | 0.998 ± 0.046
TTTCTAAGAA | 1.01 ± 0.013
TTTCTAATGG | 1.02 ± 0.026
TTTCTAGGGT | 0.994 ± 0.017
TTTCTCAAAA | 1.03 ± 0.024
TTTCTCGG | 1.07 ± 0.093
TTTCTCTGTT | 1.02 ± 0.011
TTTCTGGAAT | 0.991 ± 0.0019
TTTCTGGCCG | 0.907 ± 0.046
TTTCTGGGGC | 1.08 ± 0.08
TTTCTGGGTT | 1.01 ± 0.023
TTTCTGTCGG | 1.02 ± 0.032
TTTCTGTTGC | 0.9887 ± 0.0047
TTTCTGTTGG | 0.992 ± 0.035
TTTCTTCGGG | 1 ± 0.019
TTTCTTGCAC | 1.067 ± 0.0095
TTTCTTGCCA | 1.02 ± 0.048
TTTCTTGGCT | 1.2 ± 0.38
TTTCTTTCGG | 1.03 ± 0.048
TTTCTTTT | 1.042 ± 0.0027
TTTCTTTTAT | 0.998 ± 0.016
TTTCTTTTCT | 1.02 ± 0.032
TTTCTTTTTA | 0.9791 ± 0.0032
TTTGAAAAGC | 0.986 ± 0.018
TTTGAACGGG | 1.01 ± 0.036

Sequence | switch fluorescence ratio
TTTGAAGCAT | 1 ± 0.061
TTTGAAGGG | 0.965 ± 0.012
TTTGAAGTCT | 0.978 ± 0.09
TTTGAAGTTG | 0.992 ± 0.029
TTTGAATAGA | 0.992 ± 0.019
TTTGACAAAC | 1.1 ± 0.073
TTTGACCTGT | 0.991 ± 0.013
TTTGACGACA | 1.11 ± 0.1
TTTGACGTTG | 1.02 ± 0.047
TTTGAGAAGG | 0.948 ± 0.022
TTTGAGACGG | 0.99 ± 0.019
TTTGAGCTTG | 0.981 ± 0.017
TTTGAGCTTT | 1.02 ± 0.018
TTTGAGGGA | 0.9945 ± 0.0052
TTTGAGGGGT | 1.03 ± 0.065
TTTGAGTAGG | 0.992 ± 0.038
TTTGAGTATA | 0.992 ± 0.031
TTTGAGTGTA | 0.969 ± 0.05
TTTGATAACG | 0.987 ± 0.012
TTTGATAAGT | 1.06 ± 0.07
TTTGATACCT | 1.266 ± 0.0022
TTTGATACGC | 1.04 ± 0.031
TTTGATAGAT | 0.977 ± 0.012
TTTGATCAGC | 0.983 ± 0.031
TTTGATCGCA | 0.999 ± 0.025
TTTGATGGGC | 0.9911 ± 0.0075

Sequence | switch fluorescence ratio
TTTGATGTAG | 1.01 ± 0.011
TTTGATTCTT | 1.004 ± 0.0033
TTTGATTGAG | 0.953 ± 0.012
TTTGATTGTG | 1.03 ± 0.029
TTTGATTTGG | 0.921 ± 0.022
TTTGCAAACA | 1 ± 0.061
TTTGCACTTT | 1 ± 0.046
TTTGCAGCC | 1.05 ± 0.066
TTTGCAGCGC | 0.998 ± 0.021
TTTGCAGGGA | 1.06 ± 0.1
TTTGCAGT | 1.1 ± 0.12
TTTGCATATA | 1.09 ± 0.11
TTTGCATGAA | 0.992 ± 0.011
TTTGCATGTA | 1.02 ± 0.027
TTTGCCCCTT | 1.02 ± 0.03
TTTGCCTGCT | 1.01 ± 0.043
TTTGCGAGCG | 1.01 ± 0.023
TTTGCGGTGG | 1.01 ± 0.075
TTTGCGTAAG | 1.02 ± 0.033
